US20110091562A1 (GEORGIA TECH RESEARCH, published 2011)

Assays:
[1] = target: T1, erythropoietin-producing hepatocellular (Eph) A2 receptor (UniProt P29317 24-976, limits assumed); experiment: flow cytometry on Hey cells, 0.8 mg/mL fluorescent nanogels, 4 h incubation; reference is SCR-labeled nanogels
T1 construct: whole, on cells; Endogenous receptor on ovarian cancer cell lines
Experimental: (§1) Flow cytometry. Hey cells were plated at 2.5×10⁵ cells/well in a 12-well, cell culture plate. Cells were allowed to adhere overnight in an incubator at 37° C. in a 5% CO₂ atmosphere. Cells were washed, and fresh medium was added containing YSA-pNIPMAm or SCR-pNIPMAm nanogels at a concentration of 0.8 mg/mL and incubated for four hours. Following incubation, the cells were washed with PBS and removed from the plate by Trypsin-EDTA treatment. The cells were washed with PBS and fixed with 2% (v/v) paraformaldehyde. Cells were analyzed using a LSR Flow Cytometer (BD Biosciences). Data analysis was carried out using FlowJo software.

[2] = target: T1, erythropoietin-producing hepatocellular …; experiment: flow cytometry on Hey cells after 4 h incubation with fluorescent nanogels
Experimental: as §1

T1 sequence (P29317 24-976 limits assumed): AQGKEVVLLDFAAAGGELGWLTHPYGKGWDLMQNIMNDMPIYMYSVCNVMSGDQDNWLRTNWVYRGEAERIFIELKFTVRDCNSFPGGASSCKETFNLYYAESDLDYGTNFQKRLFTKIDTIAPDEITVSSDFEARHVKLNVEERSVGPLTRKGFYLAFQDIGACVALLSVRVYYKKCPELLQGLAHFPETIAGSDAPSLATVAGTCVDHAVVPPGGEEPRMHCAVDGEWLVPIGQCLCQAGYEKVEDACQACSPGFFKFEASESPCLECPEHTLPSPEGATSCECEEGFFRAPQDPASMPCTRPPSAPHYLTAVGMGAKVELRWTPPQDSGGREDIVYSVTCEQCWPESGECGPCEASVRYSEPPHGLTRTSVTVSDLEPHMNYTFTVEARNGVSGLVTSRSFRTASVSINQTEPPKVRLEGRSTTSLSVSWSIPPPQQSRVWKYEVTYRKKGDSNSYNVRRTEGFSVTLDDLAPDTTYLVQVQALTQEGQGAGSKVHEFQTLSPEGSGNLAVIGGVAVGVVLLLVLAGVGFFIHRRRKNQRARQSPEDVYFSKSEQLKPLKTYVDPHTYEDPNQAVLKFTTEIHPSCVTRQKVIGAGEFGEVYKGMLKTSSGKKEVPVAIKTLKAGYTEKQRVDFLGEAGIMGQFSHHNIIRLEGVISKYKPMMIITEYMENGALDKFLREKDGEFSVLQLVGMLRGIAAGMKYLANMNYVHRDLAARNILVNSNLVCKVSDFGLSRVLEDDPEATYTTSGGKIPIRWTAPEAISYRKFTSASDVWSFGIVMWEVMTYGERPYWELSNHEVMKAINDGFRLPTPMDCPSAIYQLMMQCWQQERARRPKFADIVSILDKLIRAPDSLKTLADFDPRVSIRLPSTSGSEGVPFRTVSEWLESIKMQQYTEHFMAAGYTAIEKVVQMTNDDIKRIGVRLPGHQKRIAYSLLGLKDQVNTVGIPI

Row | fold fluorescence relative to SCR-labeled nanogels [1] [fold] | binding result [2] | Binder
1 | ~10 | – | YSAYPDSVPMMSC (C-terminal cysteine coupled by maleimide (epsilon-maleimidocaproic acid, EMCA) to primary amines of the nanogel shell, The peptide that was made and conjugated carries the C-terminal Cys; also called YSA-conjugated nanogels; YSA-pNIPMAm nanogels) [YSA peptide (YSAYPDSVPMMSC) conjugated to core/shell pNIPMAm nanogels]
2 | – | no binding (tested: 0.8 mg/mL nanogels) | DYPSMAMYSPSVC (C-terminal cysteine coupled by maleimide (EMCA) to primary amines of the nanogel shell, Control peptide with the same amino acid composition as YSA, tethered to the same nanogels; also called SCR-pNIPMAm nanogels; SCR-labeled nanogels) [Scrambled (SCR) peptide (DYPSMAMYSPSVC) conjugated to core/shell pNIPMAm nanogels]
